Results: US7271143B1, “Peptides for regulation of urokinase (uPA) and tissue type (tPA) plasminogen activator and method of optimizing therapeutic efficacy” (Thrombotech Ltd., priority 2001, dated 2007)
Like-named read-outs stand apart in the source and are kept apart here. Ends that are not written are not given here.

Assays:
[1] = test system: isolated rat aorta rings; test: PE-induced contraction of isolated rat aorta rings; type: cell-based
Procedure: FIG. 1A is a diagram describing the results of experiments on the effect of tPA on PE-induced contraction of isolated rat aorta rings. Contraction of aortic rings was induced by increasing the concentrations of phenylephrine (PE), in the absence of tPA (full triangles) or in the presence of 1 nM (filled squares) or 20 nM tPA (empty squares).
FIG. 1B describes the results of experiments in which the contraction of aortic rings was induced in the absence of TNK-tPA (filled triangles), in the presence of 1 nM tPA (filled squares) or 20 nM tPA (empty squares).
FIG. 4 is a graph describing the effect of tPA on phenylepbrine-induced contraction of isolated rat aorta rings in vitro. The contraction of the aorta rings was induced by varying concentrations of phenylephrine in the absence of tPA (filled triangles), in the presence of 1 nM of TA (filled squares) or in the presence of 10 nM tPA (empty squares). The experiments were performed according to procedures described earlier by Haj-Yehia A et al., FASEB J, 2000, 14:1411–1422.
(§1) The effect of TNK-tPA on PE-induced contraction was compared with the effect of tPA, in the isolated aorta rings. The experimental procedure followed has been described earlier (Haj-Yehia A, Nassar T, Sachais B, Kuo A, Bdeir K., Al-Mehdi A-B, Mazar A, Cines D, Higazi A A-R. Urokinase-derived peptides regulate vascular smooth muscle contraction in vitro and in vivo. FASEB J 2000; 14:1411–1422.
FIG. 4 describes a graph describing the effect of TA on phenylephrine-induced contraction of isolated rat aorta rings in vitro. The contraction of the aorta rings was induced by varying concentrations of phenylephrine in the absence of tPA (filled triangles), in the presence of 1 nM of tPA (filled squares) or in the presence of 10 nM TA (empty squares). The experiments were performed according to procedures described earlier by Haj-Yehia A et al., FASEB J, 2000, 14:1411–1422.

[2] = target: T1, uPA (Homo sapiens, UniProt P00749); test: Effect on fibrinolytic activity of uPA; type: biochemical
[3] = target: scuPA (Homo sapiens, UniProt P00749); test: Effect on fibrinolytic activity of scuPA (blood clot lysis); type: biochemical
[4] = target: T2, tPA (Homo sapiens, UniProt P00750); test: tPA mediated clot lysis / chromogenic assay of tPA activity; type: biochemical
T2 sequence (P00750 36-562): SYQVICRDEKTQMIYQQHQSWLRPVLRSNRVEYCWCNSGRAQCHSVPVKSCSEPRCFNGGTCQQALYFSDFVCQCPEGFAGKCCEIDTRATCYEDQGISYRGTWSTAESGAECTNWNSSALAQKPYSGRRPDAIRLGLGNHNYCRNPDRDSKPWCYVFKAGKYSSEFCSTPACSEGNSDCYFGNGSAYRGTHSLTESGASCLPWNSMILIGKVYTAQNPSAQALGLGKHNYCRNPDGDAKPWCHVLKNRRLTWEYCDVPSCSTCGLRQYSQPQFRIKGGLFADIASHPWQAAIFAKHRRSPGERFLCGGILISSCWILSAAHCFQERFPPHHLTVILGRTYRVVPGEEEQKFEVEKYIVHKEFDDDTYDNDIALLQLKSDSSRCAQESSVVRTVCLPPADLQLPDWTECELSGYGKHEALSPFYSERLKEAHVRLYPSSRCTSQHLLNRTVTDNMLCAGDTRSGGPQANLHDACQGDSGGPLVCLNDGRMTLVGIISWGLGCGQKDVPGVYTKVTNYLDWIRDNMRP
Procedure: (§2) FIG. 7 is a bar diagram describing the results of experiments on the effect of PAI-1 derived peptide on tPA mediated clot lysis. The capacity of TA to induce clot lysis was determined in the presence and absence of 1 OM of SEQ ID NO:1. In these experiments, blood from volunteers was allowed to clot at room temperature for one hour, the blood clot was separated from the plasma, placed on absorbing paper to remove all the serum and cut into several pieces. The pieces were weighed, and placed in PBS buffer alone or containing 100 nM tPA, with or without 1 OM of SEQ ID NO:1. After incubation for 3 hours at room temperature, the thrombi are separated from the medium, dried and weighed.
as §2, with “of tPA” for “of TA”, “of 10 M.” for “of 1 OM of SEQ ID NO:1.”, “without 10M.” for “without 1 OM of SEQ ID NO:1.”, “weighed. […]” for “weighed.”

[5] = target: T2, tPA; test: Effect on vasoactivity of tPA (PE-induced contraction of aorta rings); type: cell-based
Procedure: (§3) FIG. 2 is a graphical representation of the results obtained in experiments to study the effect of PAI-1 on the vasoactivity of tPA. The EC50 of PE was determined in the absence (Control) or presence of 1 nM tPA, 20 nM tPA, 1 nM tPA and an equimolar concentration of PAI-1, 20 nM tPA and an equimolar concentration of PAI-1, 1 nM tPA and 2 μM of SEQ ID NO:1 or 20 nM tPA and 2 μM of SEQ ID NO:1.
as §3, with “FIG. 3 is a” for “FIG. 2 is a”, “effect of RAP and anti-LRP antibodies on the” for “effect of PAI-1 on the”
(§4) FIG. 6 is a bar diagram describing the results of studies done on the effect of PAI-1 derived peptide on tPA vasoactivity. The constriction of aorta rings was induced by increasing the concentrations of phenylepbrine in the absence or presence of 1 nM tPA, 1 nM tPA and 1 OM SEQ ID NO:1, 10 mM tPA or 10 nM tPA and 1 OM of SEQ ID NO:1.
as §1
In an attempt to understand the basis for the modification in the vasoactivity of TNK-tPA, the role of the PAI-1 docking site in the process was examined.
(§5) The effect of revertase and TNK-tPA on the PE induced vasocontraction was studied in presence or absence of the LRP antagonist (RAP) or anti LRP antibodies.
as §4, with “phenylephrine” for “phenylepbrine”, “OM,” for “OM SEQ ID NO:1,”, “nM” for “mM”, “OM.” for “OM of SEQ ID NO:1.”

[6] = target: T1, uPA; test: Effect on vasoactivity of uPA (PE-induced contraction of aorta rings); type: cell-based
Procedure: FIG. 5 is a bar diagram describing the results of experiments on the vasoactivity of uPA and tPA in the presence or absence of PAI-1, for example, the effect of 2 nM uPA or 1 nM tPA on phenylephrine induced vasoconstriction was determined in the presence or absence of equimolar concentrations of PAI-1.
FIG. 5 describes a bar diagram describing the results of experiments on the vasoactivity of uPA and tPA in the presence of absence of PAI-1, for example, the effect of 2 nM uPA or 1 nM tPA on phenylephrine induced vasoconstriction was determined in the presence or absence of equimolar concentrations of PAI-1.
as §4, with “phenylephrine” for “phenylepbrine”, “OM,” for “OM SEQ ID NO:1,”, “nM” for “mM”, “OM.” for “OM of SEQ ID NO:1.”

[7] = target: TNK-tPA (Homo sapiens, UniProt P00750, H332A/K331A/N152Q/R333A/R334A/T138N); test: Effect on vasoactivity of TNK-tPA (PE-induced contraction of aorta rings); type: cell-based
TNK-tPA, sequence (P00750 36-562 T138N/N152Q/K331A/H332A/R333A/R334A): as the sequence (P00750 36-562) above, with T103N, N117Q, K296A, H297A, R298A, R299A counted along it
Procedure: as §3
The effect of TNK-tPA on PE-induced contraction was compared with the effect of tPA, in the isolated aorta rings.
PAI-1 interacts with tPA through independent sites; the catalytic site and a docking site, present in the amino acids […] to 299. The PAI-1 docking site is mutated in TNK-tPA. […] Madison E L, Goldsmith W. Gething M-J, H., Sambrook J F, Gerard R D. Restoration of serine protease-inhibitor interaction by protein engineering. Journal of Biological Chemistry. 1990; 265:21423–21426.
as §5

[8] = in vivo; cited from earlier work
[9] = in vivo; cited from earlier work; remark: listed apart in the source

Work on `CNC[C@H](O)c1cccc(O)c1` [PE, phenylephrine, reference compound] yielded an EC50 ([1]; Rattus norvegicus, control, before addition of plasminogen activator, read-out: EC50 of PE-induced constriction) of 0.034 µM.

For “EEIIMD [SEQ ID NO:1, six amino acid peptide corresponding to residues 350 to 355 of PAI-1]”, the “effect on fibrinolytic activity of uPA” value [2] was “no effect”, the “effect on fibrinolytic activity of scuPA” value [3] was “no effect” and the “effect on fibrinolytic activity of scuPA” value ([3]; listed as 6 amino acid peptide) was “stimulates synergistically”. For the same compound, the “effect on fibrinolytic activity of tPA” value [4] was “no effect”, the “effect on catalytic activity of tPA (clot lysis, FIG. 7)” value ([4]; 100 nM tPA, peptide 10M (so in the source), 3 hours, room temperature) was “no significant effect” and the “effect on vasoactive effects of rtPA” value ([5]; 2 μM peptide) was “abolished”. For the same compound, the “effect on enhancing effect of tPA on phenylephrine-induced vasoconstriction in aorta ring cultures” value ([5]; concentration not given) was “abolishes”, the “effect on enhancing effect of tPA on phenylephrine induced vasoconstriction” value ([5]; peptide at 10M (so in the source)) was “abolished” and the “effect alone on contraction of aorta rings” value ([1]; without tPA or uPA) was “Neither PAI-1 nor alone had any effect”. For the same compound, the “effect on enhancing effect of uPA on phenylephrine-induced vasoconstriction” value ([6]; concentration not given) was “abrogates”, the “effect on enhancing effect of uPA on phenylephrine induced vasoconstriction” value ([6]; same as on tPA, peptide at 10M (so in the source)) was “the same effect” and the “effect on vasoactive effect of TNK-tPA” value ([7]; 2 μM peptide) was “unaffected”. The “effect on vasoactive effect of TNK-tPA” value ([7]; 10 μM peptide) was “abolished”, the “effect on vasoactive effect of TNK-tPA” value ([7]; 5 molar concentration of the peptide) was “abolished” and the “effect on vasoactive effect of TNK-tPA” value ([7]; equimolar concentration of peptide) was “unaffected”.

In the case of “rRAP: LRP antagonist, recombinant receptor associated protein [reference compound]”, the “effect on vasoactive effect of tPA” value [5] is reported as “totally abolished” and the “effect on vasoactive effect of TNK-tPA” value ([7]; anti-LRP antibodies or LRP antagonist) is reported as “totally abolished”.

For “tPA: tissue-type plasminogen activator, single-chain serine protease; rtPA is the recombinant form”, the “incidence of subsequent symptomatic intracerebral hemorrhage” value [8] is given as “approximately six”, the “patients with symptomatic intracerebral hemorrhage who die” value [8] is given as “approximately fifty” and the “affinity of first (fast) epitope, inhibits PE induced vasoconstriction” value [1] is given as “around 1 nM”. For the same compound, the “affinity of second epitope, stimulates PE-induced vasoconstriction” value [1] was “around 20 nM”, the “effect on PE-induced vasoconstriction” value ([1]; 1 nM) was “inhibited” and the “effect on PE-induced vasoconstriction” value ([1]; 1 nM, listed as TA) was “inhibits”. For the same compound, the “effect on PE-induced vasoconstriction” value ([1]; 20 nM) was “stimulated”, the “capacity to induce vasodilatation” value ([1]; FIG. 4) was “has the capacity to induce vasodilatation” and the “effect on phenylephrine-induced vasoconstriction” value ([1]; increased tPA concentrations (printed 1 nM; FIG. 4 uses 10 nM)) was “stimulated”. The non-cerebral bleeding episodes [9] was 5.94%.
